Laboratory results: US20190211057A1 (NATIONAL YANG MING UNIVERSITY, published 2019)

Tests used:
[1] = molecular target: T1, integrin αvβ3 receptor on cells (HUVEC, U87MG, MCF-7, ES-2-luc) (human, UniProt P06756 31-1048; P05106 27-788); experiment: cell-based or functional assay
[2] = molecular target: T1, integrin αvβ3 receptor on cells (HUVEC, …); experiment: cell-based or functional assay; remark: listed apart in the source
[3] = molecular target: T1, integrin αvβ3 receptor on cells (HUVEC, …); experiment: cell ELISA, HUVEC against MCF-7
[4] = molecular target: T1, integrin αvβ3 receptor on cells (HUVEC, …); experiment: cell ELISA, U87MG against MCF-7
[5] = molecular target: T2, integrin αvβ3 receptor (UniProt P06756 31-992; P05106 27-718); experiment: ELISA on αvβ3 integrin receptor
T2 construct: also called αvβ3 integrin; αvβ3 integrin receptor

[6] = molecular target: T1, integrin αvβ3 receptor on cells (HUVEC, …); experiment: cell ELISA on fixed HUVEC cells, anti-His6tag-HRP
[7] = molecular target: T1, integrin αvβ3 receptor on cells (HUVEC, …); experiment: cell ELISA on fixed U87MG cells, anti-His6tag-HRP
[8] = molecular target: T1, integrin αvβ3 receptor on cells (HUVEC, …); experiment: cell ELISA on fixed MCF-7 cells (low αvβ3 expression), anti-His6tag-HRP
[9] = molecular target: T1, integrin αvβ3 receptor on cells (HUVEC, …); experiment: immunofluorescence on U87MG and HUVEC cells, no anti-His6tag signal
From the text: Immunofluorescence is used to observe the distribution of the protein bound with cell in the cell.

[10] = molecular target: T1, integrin αvβ3 receptor on cells (HUVEC, …); experiment: cell-based or functional assay; remark: listed apart in the source
[11] = molecular target: T1, integrin αvβ3 receptor on cells (HUVEC, …); experiment: cell ELISA on HUVEC cells, anti-His-HRP
From the text: (§1) After reacted with anti-His-HRP antibody and TMB substrate, ELISA reader (OD450 nm) is used to detect the amount of recombinant protein bound to the cells, and the binding curve is drawn. The nonlinear curve of the prism software is used to make a diagram and calculate the dissociation constant (Kd).
(§2) The anti-His6-Tag-HRP antibody and TMB show the color reagent to detect the amount of recombinant protein bound to the cell, then the dissociation constant Kd value of the recombinant protein and the integrin αᵥβ₃ receptor is calculated and a binding curve is drawn.

[12] = molecular target: T1, integrin αvβ3 receptor on cells (HUVEC, …); experiment: cell ELISA on U87MG cells, anti-His-HRP
From the text: as §1, §2

[13] = molecular target: T1, integrin αvβ3 receptor on cells (HUVEC, …); experiment: cell ELISA on MCF-7 cells (low αvβ3 expression), anti-His-HRP
From the text: as §1, §2

[14] = molecular target: T2, integrin αvβ3 receptor; experiment: ELISA on integrin αvβ3 receptor, anti-His6-HRP detection, curve fit
From the text: (§3) The dissociation constant Kd is obtained by prism software with curve fitting method.

[15] = molecular target: T2, integrin αvβ3 receptor; experiment: ELISA on integrin αvβ3 receptor, anti-His6-HRP; paragraph 61 says yCD and yCD/UPRT cannot be bound to integrin αvβ3
From the text: as §3

[16] = molecular target: T2, integrin αvβ3 receptor; experiment: ELISA on integrin αvβ3 receptor (repeats Table 14)
[17] = molecular target: T2, integrin αvβ3 receptor; experiment: ELISA on integrin αvβ3 receptor, one site-specific binding fit
From the text: The curve and receptor binding ability parameters (see FIG. 19 and Table 14) are fitted by the binding ability of DTPA-modified protein and integrin αᵥβ₃ receptor through the One site-Specific binding formula in the Graph prism program.

T1 sequence (P06756 31-1048, chain 1 of 2): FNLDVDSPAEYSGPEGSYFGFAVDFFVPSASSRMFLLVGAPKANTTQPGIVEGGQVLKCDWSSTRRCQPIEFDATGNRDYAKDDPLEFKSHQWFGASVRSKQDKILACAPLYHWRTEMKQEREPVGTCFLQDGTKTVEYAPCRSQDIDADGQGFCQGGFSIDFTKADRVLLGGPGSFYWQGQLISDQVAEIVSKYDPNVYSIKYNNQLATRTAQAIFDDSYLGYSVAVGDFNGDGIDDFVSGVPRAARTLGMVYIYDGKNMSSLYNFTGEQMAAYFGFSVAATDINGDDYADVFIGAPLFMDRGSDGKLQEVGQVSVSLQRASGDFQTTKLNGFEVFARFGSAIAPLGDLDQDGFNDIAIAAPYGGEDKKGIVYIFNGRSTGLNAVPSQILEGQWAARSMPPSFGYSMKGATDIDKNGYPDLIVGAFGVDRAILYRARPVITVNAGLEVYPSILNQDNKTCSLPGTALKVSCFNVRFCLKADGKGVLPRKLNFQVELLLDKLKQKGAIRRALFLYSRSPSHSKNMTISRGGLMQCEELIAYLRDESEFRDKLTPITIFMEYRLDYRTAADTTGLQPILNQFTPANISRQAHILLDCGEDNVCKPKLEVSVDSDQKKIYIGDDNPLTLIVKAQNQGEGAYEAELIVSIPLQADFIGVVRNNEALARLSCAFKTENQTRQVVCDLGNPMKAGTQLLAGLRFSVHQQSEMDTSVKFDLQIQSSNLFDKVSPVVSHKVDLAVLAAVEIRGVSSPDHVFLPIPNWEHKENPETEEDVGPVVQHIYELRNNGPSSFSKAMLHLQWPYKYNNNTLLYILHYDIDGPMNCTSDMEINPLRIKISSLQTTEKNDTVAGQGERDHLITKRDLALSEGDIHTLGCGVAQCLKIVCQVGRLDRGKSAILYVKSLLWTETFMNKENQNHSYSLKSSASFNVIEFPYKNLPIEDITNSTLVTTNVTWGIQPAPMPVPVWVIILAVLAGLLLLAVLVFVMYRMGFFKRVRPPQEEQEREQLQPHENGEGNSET
T1 sequence (P05106 27-788, chain 2 of 2): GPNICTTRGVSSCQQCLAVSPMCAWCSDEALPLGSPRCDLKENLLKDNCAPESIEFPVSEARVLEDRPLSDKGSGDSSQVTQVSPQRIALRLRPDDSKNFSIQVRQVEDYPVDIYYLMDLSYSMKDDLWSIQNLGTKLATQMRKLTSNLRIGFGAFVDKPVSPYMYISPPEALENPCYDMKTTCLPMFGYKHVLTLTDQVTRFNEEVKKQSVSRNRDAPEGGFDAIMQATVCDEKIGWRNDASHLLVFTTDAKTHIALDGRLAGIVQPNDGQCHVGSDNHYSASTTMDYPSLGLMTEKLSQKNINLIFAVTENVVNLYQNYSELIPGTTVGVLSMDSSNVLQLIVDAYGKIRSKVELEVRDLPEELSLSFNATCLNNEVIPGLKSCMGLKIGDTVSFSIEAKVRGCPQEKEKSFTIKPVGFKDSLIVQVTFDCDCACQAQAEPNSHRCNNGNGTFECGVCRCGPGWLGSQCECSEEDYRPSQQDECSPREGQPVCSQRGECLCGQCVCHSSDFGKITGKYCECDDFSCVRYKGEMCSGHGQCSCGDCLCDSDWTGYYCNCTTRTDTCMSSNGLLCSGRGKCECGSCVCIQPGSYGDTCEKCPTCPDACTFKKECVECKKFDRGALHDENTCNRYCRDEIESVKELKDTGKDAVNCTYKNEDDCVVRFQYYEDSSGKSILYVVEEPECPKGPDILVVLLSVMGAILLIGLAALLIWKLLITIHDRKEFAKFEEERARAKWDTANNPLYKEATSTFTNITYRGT
T2 sequence (P06756 31-992, chain 1 of 2): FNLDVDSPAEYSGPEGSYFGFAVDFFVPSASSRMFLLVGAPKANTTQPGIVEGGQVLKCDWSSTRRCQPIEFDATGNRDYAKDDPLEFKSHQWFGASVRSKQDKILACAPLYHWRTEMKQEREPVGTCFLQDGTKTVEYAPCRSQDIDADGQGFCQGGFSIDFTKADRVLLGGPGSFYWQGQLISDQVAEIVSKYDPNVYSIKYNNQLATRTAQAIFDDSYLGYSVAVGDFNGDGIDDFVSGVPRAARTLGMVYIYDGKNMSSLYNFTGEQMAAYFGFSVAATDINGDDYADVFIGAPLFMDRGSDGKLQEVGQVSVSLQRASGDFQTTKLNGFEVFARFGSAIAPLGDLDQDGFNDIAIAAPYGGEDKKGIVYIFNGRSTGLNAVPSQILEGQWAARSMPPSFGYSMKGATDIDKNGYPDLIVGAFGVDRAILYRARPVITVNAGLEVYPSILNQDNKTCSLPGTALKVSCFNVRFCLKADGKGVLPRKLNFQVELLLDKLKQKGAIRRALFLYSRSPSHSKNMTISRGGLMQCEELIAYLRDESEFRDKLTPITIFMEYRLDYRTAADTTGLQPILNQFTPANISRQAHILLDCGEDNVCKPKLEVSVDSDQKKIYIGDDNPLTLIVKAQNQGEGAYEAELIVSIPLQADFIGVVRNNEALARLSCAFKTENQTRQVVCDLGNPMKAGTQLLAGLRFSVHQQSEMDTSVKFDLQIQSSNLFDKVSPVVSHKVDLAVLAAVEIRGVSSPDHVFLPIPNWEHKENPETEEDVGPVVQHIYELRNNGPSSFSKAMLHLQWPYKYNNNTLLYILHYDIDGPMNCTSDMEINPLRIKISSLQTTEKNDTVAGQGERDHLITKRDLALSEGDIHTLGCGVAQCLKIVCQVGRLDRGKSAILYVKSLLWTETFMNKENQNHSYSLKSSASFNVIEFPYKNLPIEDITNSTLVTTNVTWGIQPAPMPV
T2 sequence (P05106 27-718, chain 2 of 2): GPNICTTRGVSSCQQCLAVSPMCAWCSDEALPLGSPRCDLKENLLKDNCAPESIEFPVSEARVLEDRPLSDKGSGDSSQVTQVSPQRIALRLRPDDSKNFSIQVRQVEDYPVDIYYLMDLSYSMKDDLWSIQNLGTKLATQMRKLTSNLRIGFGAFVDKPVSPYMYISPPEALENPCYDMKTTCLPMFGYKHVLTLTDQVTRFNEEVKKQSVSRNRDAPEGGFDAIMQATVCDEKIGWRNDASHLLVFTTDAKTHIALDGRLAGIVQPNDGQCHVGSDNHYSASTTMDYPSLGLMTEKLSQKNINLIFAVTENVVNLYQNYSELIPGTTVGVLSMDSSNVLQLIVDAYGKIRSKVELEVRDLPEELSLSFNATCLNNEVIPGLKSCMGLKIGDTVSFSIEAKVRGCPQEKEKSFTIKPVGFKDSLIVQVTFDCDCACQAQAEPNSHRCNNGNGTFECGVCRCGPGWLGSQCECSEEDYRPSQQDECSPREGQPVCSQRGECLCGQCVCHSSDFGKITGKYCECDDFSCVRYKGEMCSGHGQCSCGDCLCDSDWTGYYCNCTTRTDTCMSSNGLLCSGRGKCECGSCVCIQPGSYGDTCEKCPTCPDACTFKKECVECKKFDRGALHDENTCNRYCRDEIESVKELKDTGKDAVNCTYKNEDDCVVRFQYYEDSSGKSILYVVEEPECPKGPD

B1: RGD4C-EcCD_WT (other)
chain: MGCDCRGDCFCMSNNALQTIINARLPGEEGLWQIHLQDGKISAIDAQSGVMPITENSLDAEQGLVIPPFVEPHIHLDTTQTAGQPNWNQSGTLFEGIERWAERKALLTHDDVKQRAWQTLKWQIANGIQHVRTHVDVSDATLTALKAMLEVKQEVAPWIDLQIVAFPQEGILSYPNGEALLEEALRLRADVVGAIPHFEFTREYGVESLHKTFALAQKYDRLIDVHCDEIDDEQSRFVETVAALAHHEGMGARVTASHTTAMHSYNGAYTSRLFRLLKMSGINFVANPLVNIHLQGRFDTYPKRRGITRVKEMLESGINVCFGHDDVFDPWYPLGTANMLQVLHMGLHVCQLMGYGQINDGLNLITHHSARTLNLQDYGIAAGNSANLIILPAENGFDALRRQVPVRYSVRGGKVIASTQPAQTTVYLEQPEAIDYKRLEHHHHHH
notes: Fusion of the RGD4C peptide with E. coli cytosine deaminase; His6-tagged
IC50 of 5-FC, MTT cytotoxicity, HUVEC cells incubated with 50 nM protein then washed [1]: 35.9 µM
IC50 of 5-FC, MTT cytotoxicity, MCF-7 cells (low αvβ3) incubated with 50 nM protein then washed [1]: > 10 mM
IC50 of 5-FC, MTT cytotoxicity, U87MG cells incubated with 50 nM protein then washed [1]: 44.1 µM
protein reaction concentration IC50 of cytotoxic effect, MTT, HUVEC cells, 100 µM 5-FC [2]: 22.9 nM
protein reaction concentration IC50 of cytotoxic effect, MTT, U87MG cells, 100 µM 5-FC [2]: 38.5 nM
fold binding ability against MCF-7 [3]: 16.1 fold
fold binding ability against MCF-7 [4]: 23.7 fold
Kd [5]: 7 nM
Kd [6]: 20.3 nM
Kd [7]: 13.8 nM
Kd [8]: 327 nM

B2: RGD4C-EcCD_D314A (other)
chain: MGCDCRGDCFCMSNNALQTIINARLPGEEGLWQIHLQDGKISAIDAQSGVMPITENSLDAEQGLVIPPFVEPHIHLDTTQTAGQPNWNQSGTLFEGIERWAERKALLTHDDVKQRAWQTLKWQIANGIQHVRTHVDVSDATLTALKAMLEVKQEVAPWIDLQIVAFPQEGILSYPNGEALLEEALRLRADVVGAIPHFEFTREYGVESLHKTFALAQKYDRLIDVHCDEIDDEQSRFVETVAALAHHEGMGARVTASHTTAMHSYNGAYTSRLFRLLKMSGINFVANPLVNIHLQGRFDTYPKRRGITRVKEMLESGINVCFGHDAVFDPWYPLGTANMLQVLHMGLHVCQLMGYGQINDGLNLITHHSARTLNLQDYGIAAGNSANLIILPAENGFDALRRQVPVRYSVRGGKVIASTQPAQTTVYLEQPEAIDYKRLEHHHHHH
notes: Fusion of the RGD4C peptide with the E. coli cytosine deaminase D314A mutant; His6-tagged
IC50 of 5-FC, MTT cytotoxicity, HUVEC cells incubated with 50 nM protein then washed [1]: 8.2 µM
IC50 of 5-FC, MTT cytotoxicity, MCF-7 cells (low αvβ3) incubated with 50 nM protein then washed [1]: > 10 mM
IC50 of 5-FC, MTT cytotoxicity, U87MG cells incubated with 50 nM protein then washed [1]: 5 µM
protein reaction concentration IC50 of cytotoxic effect, MTT, HUVEC cells, 100 µM 5-FC [2]: 9.8 nM
protein reaction concentration IC50 of cytotoxic effect, MTT, U87MG cells, 100 µM 5-FC [2]: 4 nM
fold binding ability against MCF-7 [3]: 12.9 fold
fold binding ability against MCF-7 [4]: 19.9 fold
Kd [5]: 9.1 nM
Kd [6]: 23.3 nM
Kd [7]: 15.1 nM
Kd [8]: 300 nM

B3: EcCD_WT (enzyme, E. coli)
chain: MSNNALQTIINARLPGEEGLWQIHLQDGKISAIDAQSGVMPITENSLDAEQGLVIPPFVEPHIHLDTTQTAGQPNWNQSGTLFEGIERWAERKALLTHDDVKQRAWQTLKWQIANGIQHVRTHVDVSDATLTALKAMLEVKQEVAPWIDLQIVAFPQEGILSYPNGEALLEEALRLRADVVGAIPHFEFTREYGVESLHKTFALAQKYDRLIDVHCDEIDDEQSRFVETVAALAHHEGMGARVTASHTTAMHSYNGAYTSRLFRLLKMSGINFVANPLVNIHLQGRFDTYPKRRGITRVKEMLESGINVCFGHDDVFDPWYPLGTANMLQVLHMGLHVCQLMGYGQINDGLNLITHHSARTLNLQDYGIAAGNSANLIILPAENGFDALRRQVPVRYSVRGGKVIASTQPAQTTVYLEQPEAIDYKRLEHHHHHH
notes: Control without RGD4C; also called E. coli cytosine deaminase (EcCD) wild type
binding result [9]: no binding

B4: EcCD_D314A (enzyme)
chain: MSNNALQTIINARLPGEEGLWQIHLQDGKISAIDAQSGVMPITENSLDAEQGLVIPPFVEPHIHLDTTQTAGQPNWNQSGTLFEGIERWAERKALLTHDDVKQRAWQTLKWQIANGIQHVRTHVDVSDATLTALKAMLEVKQEVAPWIDLQIVAFPQEGILSYPNGEALLEEALRLRADVVGAIPHFEFTREYGVESLHKTFALAQKYDRLIDVHCDEIDDEQSRFVETVAALAHHEGMGARVTASHTTAMHSYNGAYTSRLFRLLKMSGINFVANPLVNIHLQGRFDTYPKRRGITRVKEMLESGINVCFGHDAVFDPWYPLGTANMLQVLHMGLHVCQLMGYGQINDGLNLITHHSARTLNLQDYGIAAGNSANLIILPAENGFDALRRQVPVRYSVRGGKVIASTQPAQTTVYLEQPEAIDYKRLEHHHHHH
notes: Control without RGD4C; also called E. coli cytosine deaminase D314A mutant
binding result [9]: no binding

B5: RGD4C-yCD/UPRT (other)
chain: MACDCRGDCFCVTGGMASKWDQKGMDIAYEEAALGYKEGGVPIGGCLINNKDGSVLGRGHNMRFQKGSATLHGEISTLENCGRLEGKVYKDTTLYTTLSPCDMCTGAIIMYGIPRCVVGENVNFKSKGEKYLQTRGHEVVVVDDERCKKIMKQFIDERPQDWFEDIGEASEPFKNVYLLPQTNQLLGLYTIIRNKNTTRPDFIFYSDRIIRLLVEEGLNHLPVQKQIVETDTNENFEGVSFMGKICGVSIVRAGESMEQGLRDCCRSVRIGKILIQRDEETALPKLFYEKLPEDISERYVFLLDPMLATGGSAIMATEVLIKRGVKPERIYFLNLICSKEGIEKYHAAFPEVRIVTGALDRGLDENKYLVPGLGDFGDRYYCVLEHHHHHH
notes: Fusion of the RGD4C peptide, yCD and yeast UPRT; His6-tagged recombinant protein; also called RGD4C-yCD/UPRPT
IC50 of 5-FC, MTT cytotoxicity, HUVEC cells incubated with 500 nM protein then washed [10]: 8.6 µM
IC50 of 5-FC, MTT cytotoxicity, MCF-7 cells (low αvβ3) incubated with 500 nM protein then washed [10]: 4.34 mM
IC50 of 5-FC, MTT cytotoxicity, U87MG cells incubated with 500 nM protein then washed [10]: 5.1 µM
fold cell binding ability against MCF-7 [3]: ~6.9 fold
fold cell binding ability against MCF-7 [4]: ~5.8 fold
Kd [11]: 48.3 nM
Kd [12]: 57.8 nM
Kd [13]: 335 nM
Kd [14]: 41.7 nM

B6: yCD/UPRT (enzyme)
chain: MVVTGGMASKWDQKGMDIAYEEAALGYKEGGVPIGGCLINNKDGSVLGRGHNMRFQKGSATLHGEISTLENCGRLEGKVYKDTTLYTTLSPCDMCTGAIIMYGIPRCVVGENVNFKSKGEKYLQTRGHEVVVVDDERCKKIMKQFIDERPQDWFEDIGEASEPFKNVYLLPQTNQLLGLYTIIRNKNTTRPDFIFYSDRIIRLLVEEGLNHLPVQKQIVETDTNENFEGVSFMGKICGVSIVRAGESMEQGLRDCCRSVRIGKILIQRDEETALPKLFYEKLPEDISERYVFLLDPMLATGGSAIMATEVLIKRGVKPERIYFLNLICSKEGIEKYHAAFPEVRIVTGALDRGLDENKYLVPGLGDFGDRYYCVLEHHHHHH
notes: Control fusion without RGD4C
binding result [15]: no binding

B7: DTPA-RGD4C-yCD (other)
chain: MACDCRGDCFCVTGGMASKWDQKGMDIAYEEAALGYKEGGVPIGGCLINNKDGSVLGRGHNMRFQKGSATLHGEISTLENCGRLEGKVYKDTTLYTTLSPCDMCTGAIIMYGIPRCVVGENVNFKSKGEKYLQTRGHEVVVVDDERCKKIMKQFIDERPQDWFEDIGELEHHHHHH
modifications: DTPA on primary amines, 0.94 DTPA per protein on average
Kd [16]: 47.6 nM
Kd [17]: 47.6 nM

B8: yeast cytosine deaminase (yCD) (enzyme)
chain: MVVTGGMASKWDQKGMDIAYEEAALGYKEGGVPIGGCLINNKDGSVLGRGHNMRFQKGSATLHGEISTLENCGRLEGKVYKDTTLYTTLSPCDMCTGAIIMYGIPRCVVGENVNFKSKGEKYLQTRGHEVVVVDDERCKKIMKQFIDERPQDWFEDIGELEHHHHHH
notes: Recombinant, from pET28a(+), detected by its His6 tag
binding result [15]: no binding
